Measurements: patent publication US20220380473A1, “ANTI-GAL3 ANTIBODIES AND USES THEREOF” (TrueBinding, Inc., priority 2019, published 2022)

Assays:
[1] = tested on: 4T1 cells; assay: 4T1 orthotopic tumor induced lung metastasis model; assay type: in vivo, mouse; details: 10 mg/Kg i.p., day 30, vs isotype control
Experimental: On the day of tumor implantation, 4T1 cells were collected, washed and resuspended in PBS. Mice were anesthetized by inhalation anesthetic (3 to 5% Isoflurane in medical grade air). 2×10^5 cells in 0.1 mL PBS were subcutaneously injected into the mammary gland by using a syringe with a 25-ga needle. Mice were randomly assigned into two groups (n=10). […] The tumor volumes and body weights were monitored twice per week. On day 30, the mice were humanely sacrificed and lung tissues were inflated with 30% sucrose, removed and fixed in Bouin's solution (Sigma-Aldrich). […] Results were expressed as mean±SEM.

[2] = tested on: MCD mouse model of liver fibrosis; assay: Methionine-choline deficient (MCD) mouse model of liver fibrosis; assay type: in vivo
Description: To further investigate the ability of GAL3-TIM3 blocking antibodies to influence liver fibrosis, the methionine-choline deficient (MCD) mouse model of liver fibrosis was employed. Briefly, Six-week-old male C57Bl/6 mice (Jackson Laboratory) were fed either a normal diet (Envigo, #2020X; n=5 mice); or MCD diet (Fisher Scientific, #MP296043910, n=25) for 8 weeks and continuously through the remainder of the study. Mice were divided into three groups (7 mice each) and randomized based on ALT score. Group 1 and 2 were treated mouse anti-mIgG2aLala isotype control (mISO, 10 mg/kg) or mouse anti-Gal3 antibody (mIMT001, 10 mg/kg) twice a week of IP injection for 4 weeks, at which time animals were sacrificed and liver specimens were collected, fixed in 4% paraformaldehyde (Electron Microscopy Sciences, Cat #15710S) for 24 hours, transferred to 70% EtOH for 72 hours, and samples were subsequently embedded in paraffin. […] Brightfield images were acquired under a Revolve microscope (Discover Echo, Inc.).
To assess fibrosis in these specimens, tissue sections were evaluated for the deposition of fibrotic collagen deposits by picosirius red staining. Briefly, after deparaffinization, liver specimens from isotype control- or IMT001-treated MCD mice were rehydrated in serial ethanol baths, sections were stained in 0.01% Fast green FCF Solution (Cat #1.04022.0025 MilliporeSigma) in saturated picric aqueous solution for 15 minutes at room temperature, followed by 1 h incubation at room temperature in 0.04% Fast green FCF/0.1% Sirius red in saturated picric aqueous solution, prior to their dehydration, clearing and mounting. Images were quantitated using ImageJ software (Rasband, W. S., ImageJ, U. S. National Institutes of Health, Bethesda, Md., USA, world wide web.imagej.nih.gov/ij/)

[3] = tested on: Human peripheral blood mononuclear cells (PBMCs); assay: CMV antigen recall assay, IFN gamma; assay type: cell-based; details: 10 ug/ml final, CMV 4 days, vs isotype control
Experimental: To assess the ability of Gal3-targeted antibodies with Gal3-TIM-3 blocking activity to enhance T-cell mediated responses, a CMV antigen recall assay was used. Human peripheral blood mononuclear cells (PBMCs) (Astarte, donor ID 230) were quickly thawed in 37 C water bath, resuspended in 20 ml of RPMI media with 10% FBS, and centrifuged at 1500 RPM for 5 min. Media was discarded pellet resuspended in 20 ml media and counted by […], and diluted to a final concentration of 4 million/ml in Serum free Media (Lonza). 50 ul of media plus cells (200,000 cells/well) were added to 60 inner wells of a 96 well round bottom plate, and incubated at 37 C for 30 min. Antibodies were added to serum free media to a stock concentration of 4× the final concentration (40 ug/ml). 50 ul of antibodies at 4× concentration were added directly to the PBMCS and incubated at 37 C for 30 min. After PBMCs were incubated with antibodies for 30 min, 100 ul of CMV (Astarte Biologics, Cat. #1004) at 2× concentration (1 ug/ml) directly to the cells and incubated for 4 days at 37 C. On Day 4, 10 ul of cell supernatant were collected to measure human IFN gamma concentration by ELISA via a human IFN-gamma ELISA kit (Invitrogen).

[4] = tested on: MC38 murine colon adenocarcinoma cells; assay: Primary mouse MC38 colon tumor model; assay type: in vivo
Experimental: On the day of tumor implantation, MC38 murine colon adenocarcinoma cells were collected, washed and resuspended in PBS. Mice were anesthetized by inhalation anesthetic (3 to 5% Isoflurane in medical grade air). 5×10^5 cells in 0.1 mL PBS were subcutaneously injected into the right flank of mice by using a syringe with a 25-ga needle. On day 7, the tumor volumes were measured and mice were randomly assigned into two groups (n=8). […] The tumor volumes and body weights were monitored twice per week. The animals were humanely sacrificed when tumor volume reached 3000 mm^3. Results were expressed as mean±SEM.

[5] = 10 mg/kg twice a week IP for 4 weeks

B1: IMT001: anti-Gal3 monoclonal antibody (Immutics); printed as mIMT001 (IMT001), murine (antibody, V domains shown)
VH: QIQLVQSGPELKKPGETVKISCKASGYTFTNYGMNWVKQAPGKGLKWMGWINTNTGEPTYVEEFKGRFAFSLETSASTAYLQINNLKNEDTATYFCAPYDNFFAYWGQGTLVTVSA
VL: DIVITQDELSNPVTSGESVSISCRSSKSLLYKDGKTYLNWFLQRPGQSPQLLIYLMSTHASGVSDRFSGSGSGTDFTLEISRVKAEDVGVYYCQQLVDYPLTFGAGTKLELK
B1 was tested, and the lung metastatic number [1] was “significant reduction of lung metastatic number”, the “apoptotic ballooning cells, image-based quantification” value [2, 5] was 0.98 and the “infiltrating lobular immune cells, image-based quantification” value [2, 5] was 0.73. For the same molecule, the “steatosis, image-based quantification” value [2, 5] was 1, the NAS score ([2]; integrated score) was 2.72 and the “picosirius red staining, % of the tissue area” value ([2]; liver sections) was 1.25%. The reduction of ballooning ([2]; vs control-treated) was 27%, the “reduction of lobular immune cells” value ([2]; vs control-treated) was 59% and the reduction of steatosis ([2]; vs control-treated) was 15%. The “reduction of NAS score” value ([2]; vs isotype control) was 43%, the “reduction of picosirius red staining” value ([2]; vs isotype control) was 71% and the interferon-gamma secretion [3] was “significantly increased levels”. For the same molecule, the “reduction of tumor burden” value ([4]; 10 mg/Kg i.p., day 24, vs isotype control) was “about 33%” and the “effect on tumor size” value ([4]; vs isotype control) was “much reduced tumor size”.
